# Reference: article PMC2680917 (Cell, 2009)
# B1: Homer3CC2 (287 – carboxy-terminus of Homer3a) (domain or fragment, human, UniProt Q9NSC5 287-361, looked up)
# chain: AAEREETQQKVQDLETRNAELEHQLRAMERSLEEARAERERARAEVGRAAQLLDVSLFELSELREGLARLAEAAP
# Legend:
# Homer1b (rat) = experiment: AUC
# Shank1CΔPEST = experiment: co-sedimentation
# [1] = molecular target: Homer1b I332R/I337E (rat); experiment: AUC
# Homer1bΔ329 (rat) = experiment: AUC
# crystal structure = molecular target: the molecule itself; experiment: crystal structure
molecule,measurement,setting,value
Homer1b (natural protein),stoichiometry N,Homer1b (rat),4.2 mer
same,percent precipitated,Shank1CΔPEST,50%
same,stoichiometry N (Homer:Shank molar ratio),Shank1CΔPEST,1
Homer1b I332R/I337E (natural protein),stoichiometry N,[1],2 mer
Homer1bΔ329 (domain or fragment),stoichiometry N,Homer1bΔ329 (rat),2.1 mer
B1,binding result,crystal structure,binds
